From the supplement of paper PMC10567573
± gives the standard deviation.

Test: protein stability index of a GFP-peptide fusion (GPS, HEK-293T) (PSI 1-6); higher = more stable
[1] = treatment: DMSO, c terminus: a fixed tail appended
[2] = treatment: MLN4924 1 uM, 8 h, c terminus: a fixed tail appended
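Note: 24-mer peptide tiles fused after GFP, lentivirally expressed, FACS-sorted into six equal bins by GFP/DsRed ratio, decoded by Illumina sequencing, PSI is the read-weighted mean bin number.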

QCPMRVQKEVAGFVLNRLQYAIIS [CRYL1]
protein stability index [1]: 3 ± 0.78
protein stability index [2]: 2.38 ± 1

KYEHELALRQTVEADVNGLRRVLD [KRT16]
protein stability index [1]: 3.98 ± 0.15
protein stability index [2]: 4.09 ± 0.15

QLLLGRLFRWPDLQHAVELKPLCG [SMAD6]
protein stability index [1]: 2.12 ± 0.19
protein stability index [2]: 2.36 ± 0.17

ASAQPLPAPEAAHTTGPTGSAPNS [TFE3]
protein stability index [1]: 5.35 ± 0.18
protein stability index [2]: 5.46 ± 0.15

QAWVQKHHPENGEETVTMLEDVER [ZNF396]
protein stability index [1]: 5.1 ± 0.32
protein stability index [2]: 5.39 ± 0.17

FNFKFNLTEDMYAQDSIELLTTSG [CNOT7]
protein stability index [1]: 1.825 ± 0.003

MTGRAMDPLPAAAVGAAAEAEADE [SNX8]
protein stability index [1]: 5.52 ± 0.3
protein stability index [2]: 5.78 ± 0.12

VPWNQVGMRDADYIAAFLHVLLPV [HDAC6]
protein stability index [2]: 2.07 ± 1.5

ARAFAQRYLADLLPSVFGSLRDSG [RSPH3]
protein stability index [1]: 2.29 ± 0.41
protein stability index [2]: 2.25 ± 0.28

SYRTESAQRQACMYASSAPPSEPV [TBX5]
protein stability index [1]: 3.79 ± 0.16
protein stability index [2]: 4.07 ± 0.24

EEGESLLCLACSAGYYELAQVLLA [ANKRD17]
protein stability index [1]: 2.17 ± 0.4
protein stability index [2]: 2.39 ± 0.25

SLELDKMAHGYGEESEEERGLEPG [CHGB]
protein stability index [1]: 5.49 ± 0.46
protein stability index [2]: 5.41 ± 0.19

IKLFACYNDGVINLLEKFFEMKKG [SNAP91]
protein stability index [1]: 2.39 ± 0.57
protein stability index [2]: 2.48 ± 0.37

FCADNPSELPPPMERTGGIGDSRP [DVL3]
protein stability index [1]: 4.45 ± 0.32
protein stability index [2]: 4.62 ± 0.32

KVASSDLVNMGISVVSYTLKDIHD [FLOT1]
protein stability index [1]: 2.34 ± 0.17
protein stability index [2]: 2.37 ± 0.29

VKDDELDAMLKEASGPINFTMFLN [MYL5]
protein stability index [1]: 3.39 ± 0.082
protein stability index [2]: 3.5 ± 0.19

RRPEVDPLPFPGPFPAGPLAVAGG [ESRRA]
protein stability index [1]: 3.56 ± 0.21
protein stability index [2]: 3.71 ± 0.24

IGGLLGATFNCLNKRLAKYRMRNV [CLCN6]
protein stability index [1]: 2.34 ± 0.2
protein stability index [2]: 2.2 ± 0.53

LTFGPDSRHCPQLPPPCAALWCSG [ADAMTS4]
protein stability index [1]: 2.29 ± 0.36
protein stability index [2]: 2.46 ± 0.32

QPPEMIGPMRPEQFSDEVEPATPE [GAGE1]
protein stability index [1]: 5.03 ± 0.33
protein stability index [2]: 5.17 ± 0.17

LKYFSDFRPYFTIHDSEFKEYTTR [DENND6A]
protein stability index [1]: 2.19 ± 0.32
protein stability index [2]: 2.3 ± 0.2

LSGVQRVESVFFGGGTPSLASPHT [RSAD1]
protein stability index [1]: 2.98 ± 0.27
protein stability index [2]: 3.07 ± 0.25

PEGVNKLKISPVTLKEAYVQKLVK [TENT5C]
protein stability index [1]: 2.94 ± 0.35
protein stability index [2]: 2.93 ± 0.41

SSFLSFAELFSYVLQDRAAKGSLG [FEM1A]
protein stability index [1]: 2.58 ± 0.35
protein stability index [2]: 2.55 ± 0.81

WLSSRAAAIKVNDSVPFHLGWNST [MYORG]
protein stability index [1]: 1.99 ± 0.23
protein stability index [2]: 2.19 ± 0.38

YLNLDTWEWNELIPQGICPVGRSW [KLHDC2]
protein stability index [1]: 2.79 ± 1.1
protein stability index [2]: 2.39 ± 0.42

RNLAKRRRTYLGGAAGRSQEPEVP [RSPH3]
protein stability index [1]: 4.38 ± 0.26
protein stability index [2]: 4.32 ± 0.2

GNKSDLKQLRQVTKEEGLALAREF [RIT1]
protein stability index [1]: 4.31 ± 0.25
protein stability index [2]: 4.26 ± 0.12

IGATFTDWFTSYVKNVVSGGFPII [FBXO3]
protein stability index [1]: 2.65 ± 0.84
protein stability index [2]: 2.7 ± 0.76

PAMSPYWRTWMTITQSWQVSVRVQ [C22orf15]
protein stability index [1]: 2.51 ± 0.41
protein stability index [2]: 2.74 ± 0.3

KEHVPTWLQNTHVYSWPKNKKNIL [TRAF3IP2]
protein stability index [1]: 2.71 ± 0.081
protein stability index [2]: 3.43 ± 0.24

TGLVYDQNMMNHCNLWDSHHPEVP [HDAC6]
protein stability index [1]: 3.08 ± 0.29
protein stability index [2]: 3.25 ± 0.18

QSAQIACSSPSVVASLPLDQSDEG [MAGEA10]
protein stability index [1]: 5.5 ± 0.45
protein stability index [2]: 5.236 ± 0.029

SRVTMILFVLELEWVLSTGQDKQF [WDFY2]
protein stability index [1]: 3.1 ± 0.31
protein stability index [2]: 3.09 ± 0.66

VGEIVGIITRHNLTYEFLQARLRQ [CLCN6]
protein stability index [1]: 2.73 ± 0.64
protein stability index [2]: 2.67 ± 0.85

TSRFGSQCMQPNNIMGIENICELA [NR2F2]
protein stability index [1]: 2.88 ± 0.28
protein stability index [2]: 2.74 ± 0.35

VGPRETEEKVRDLLWAKFTNSDTP [TOR1AIP2]
protein stability index [1]: 4.14 ± 0.43
protein stability index [2]: 4.1 ± 0.3

SLKFKSRVPQTWSKRLYGVYDNEK [PLD5]
protein stability index [1]: 2.55 ± 0.39
protein stability index [2]: 2.71 ± 0.74

MASDHREALLDRESENASLREKLR [LRRC45]
protein stability index [1]: 5.15 ± 0.093
protein stability index [2]: 4.95 ± 0.16

DNARLAVDDFRLKYENELALRQSV [KRT13]
protein stability index [1]: 3.92 ± 0.14
protein stability index [2]: 3.86 ± 0.18

HWFRKGLRLHDNPALKECIQGADT [CRY1]
protein stability index [1]: 3.11 ± 0.19
protein stability index [2]: 3.45 ± 0.38

RLLALIYLAHASDVLENAFAPLLD [GOLPH3]
protein stability index [1]: 2.65 ± 0.48
protein stability index [2]: 2.7 ± 0.71

TPGSRIESILMSLPLTARWEYMHS [CPOX]
protein stability index [1]: 2.33 ± 0.27
protein stability index [2]: 2.24 ± 0.12

FPSSGRFWKLYIEAEVTILFYFFL [CSTF3]
protein stability index [1]: 2.87 ± 0.66
protein stability index [2]: 2.35 ± 0.9

RAGVQWKFAGSFYFAITVITTIGY [KCNK9]
protein stability index [1]: 3.03 ± 0.064
protein stability index [2]: 3.11 ± 0.4

EADYEDDSKIAFLMQLQDIQYLTE [IQUB]
protein stability index [1]: 3.3 ± 0.2
protein stability index [2]: 3.38 ± 0.57

AFTEYVHAYFRGHSPSCLARVTGE [FCHO1]
protein stability index [1]: 2.1 ± 0.28
protein stability index [2]: 2.22 ± 0.25

RATSLGRPEEEEDELAHRCSSFMA [CPOX]
protein stability index [1]: 4.68 ± 0.33
protein stability index [2]: 4.71 ± 0.17

RLDGQQEPQPFVTSDVYSSDAAFG [MYORG]
protein stability index [1]: 4.56 ± 0.26
protein stability index [2]: 4.63 ± 0.14

DVKDKETTENENTKFEVRLLRDPA [CHGB]
protein stability index [1]: 4.33 ± 0.41
protein stability index [2]: 4.7 ± 0.3

HQVPTTAGNKAALLDQIREGAQLK [WASL]
protein stability index [1]: 4.95 ± 0.18
protein stability index [2]: 4.86 ± 0.33

AAVFKETFKSLSHIDPDVLYPSLN [ALG2]
protein stability index [1]: 2.72 ± 0.17
protein stability index [2]: 2.71 ± 0.22

EKELISMECYDIYSKTWTKQPDLT [GAN]
protein stability index [1]: 3.21 ± 0.25
protein stability index [2]: 3.28 ± 0.36

RALSEYLAVFARCLAGCEGAHEQV [P3H4]
protein stability index [1]: 2.62 ± 0.86
protein stability index [2]: 2.89 ± 0.91

EQMKVYKCEHCRVLFLDHVMYTIH [IKZF1]
protein stability index [1]: 2.37 ± 0.34
protein stability index [2]: 2.23 ± 0.41

DVVRSLLRRGASVNRTTRTNSTPL [FEM1A]
protein stability index [1]: 2.75 ± 0.29
protein stability index [2]: 2.65 ± 0.27

ESLDYDRCINDPYLEVLETMDNKK [CLCN6]
protein stability index [1]: 5.21 ± 0.25
protein stability index [2]: 5.29 ± 0.37

TKRVRQLLDLDPEVECLKANTNEV [GOLPH3]
protein stability index [1]: 4.29 ± 0.32
protein stability index [2]: 4.62 ± 0.22

CTGTEAHISSCKLGPQVSLDPMKN [LOXL2]
protein stability index [1]: 3.5 ± 0.29
protein stability index [2]: 3.81 ± 0.11

FLPEKKDTGVFAVVNSHSLSLLGK [SLC22A15]
protein stability index [1]: 2.57 ± 0.39
protein stability index [2]: 2.83 ± 0.52

TEKKQTKVEFPEARIYEETLNILL [KCTD10]
protein stability index [1]: 2.12 ± 0.1
protein stability index [2]: 2.23 ± 0.33

SLHPESGQENDATSPHFSTRHEGS [CD69]
protein stability index [1]: 5.4 ± 0.23
protein stability index [2]: 5.33 ± 0.14

QISIYGVKILEPKTKEVQHNCQLH [GULP1]
protein stability index [1]: 2.58 ± 0.37
protein stability index [2]: 2.85 ± 0.39

NAQIPELKSDLEKASALNTKIRAL [CD207]
protein stability index [1]: 4.016 ± 0.023
protein stability index [2]: 3.86 ± 0.48

EQEPELSFLKQKEQLEAEAQALRQ [PBXIP1]
protein stability index [1]: 5.42 ± 0.19
protein stability index [2]: 5.29 ± 0.21

PCIRNVTSPTRQHHVEREKDHSSS [BTBD10]
protein stability index [1]: 5.23 ± 0.14
protein stability index [2]: 5.02 ± 0.42

NFVHRFPFVAVSIGFAVNKKIEFG [IMPA1]
protein stability index [1]: 2.91 ± 0.76
protein stability index [2]: 2.77 ± 0.61

TSLQGLTGTPLVAGSPIRHENAVQ [ISL2]
protein stability index [1]: 4.31 ± 0.33
protein stability index [2]: 4.36 ± 0.16

KYSLPWTTLDEFPLTRLGQLKACT [KCNG1]
protein stability index [1]: 2.42 ± 0.25
protein stability index [2]: 2.61 ± 0.34

QSEERKRIDELIESGKEEGMKIDL [KMT5A]
protein stability index [1]: 5.583 ± 0.004
protein stability index [2]: 5.5 ± 0.13

CVPVFANMSREPFSTRALVLSILH [SOAT2]
protein stability index [1]: 2.22 ± 0.21
protein stability index [2]: 2 ± 0.22

LGACVAPGGNLIVELARYLVDVRQ [DNAAF3]
protein stability index [1]: 2.57 ± 0.44
protein stability index [2]: 2.12 ± 0.2

EIDRSVENTLLNSQMVSTDNSLSS [MIA2]
protein stability index [1]: 4.18 ± 0.35
protein stability index [2]: 4.67 ± 0.23

LHSISDSVLFLQEFGALMSNYSLP [TRIM29]
protein stability index [1]: 2.41 ± 0.43
protein stability index [2]: 2.12 ± 0.26

GPGDEVARGIAGEKFDIVKKWGIN [ARFIP2]
protein stability index [1]: 4 ± 0.17
protein stability index [2]: 4.2 ± 0.046

TWSNQTQNIQSWSNHSWNTQTWCT [NANOGP8]
protein stability index [1]: 2.27 ± 0.15
protein stability index [2]: 2.27 ± 0.26

AVGGRDDTTELSSAERYNPRTNQW [KLHL20]
protein stability index [1]: 4.47 ± 0.21
protein stability index [2]: 4.5 ± 0.16

VEAKSWTASSSYGKGEGPIWLDNL [LOXL2]
protein stability index [1]: 2.42 ± 0.31
protein stability index [2]: 2.61 ± 0.74

TTTRRIVDGKVVSETNDTKVLRH [KRT18]
protein stability index (treatment: DMSO, c terminus: native): 5.19 ± 0.24
protein stability index (treatment: MLN4924 1 uM, 8 h, c terminus: native): 5.28 ± 0.3

NSQALLLHSSILTCTLLLLYSLAP [MFSD9]
protein stability index [1]: 3.23 ± 0.12
protein stability index [2]: 3.08 ± 0.52

ELVLRKDCPKIVEPHGKMFNEQTW [ZSCAN9]
protein stability index [1]: 2.86 ± 0.38
protein stability index [2]: 2.78 ± 0.3

CRKWNQMMYSAELWRYRTITFSGR [FBXO39]
protein stability index [1]: 2.41 ± 0.28
protein stability index [2]: 2.15 ± 0.37

PLFNPMIYSLRNKEFKSALCKIVR [OR10K2]
protein stability index [1]: 2.32 ± 0.071
protein stability index [2]: 1.9 ± 0.5

QKRYQDWFQRQYLSTPDSQSLRCD [INTS3]
protein stability index [1]: 2.96 ± 0.1
protein stability index [2]: 3.13 ± 0.17

EVIVFGGCANNLLVHHRAAHSNEI [KLHDC2]
protein stability index [1]: 2.13 ± 0.19
protein stability index [2]: 2.2 ± 0.26

TNLLEGAVAFMPEDITKGTQSLPT [AUP1]
protein stability index [1]: 4.55 ± 0.12
protein stability index [2]: 4.47 ± 0.17

PQQGFFSSFFTCNQKCQLRLLKTL [ATP23]
protein stability index [1]: 2.36 ± 0.4
protein stability index [2]: 2.13 ± 0.3

IYAFAGMTNHQLSTTEWNDETLYQ [CHIT1]
protein stability index [1]: 2.36 ± 0.26
protein stability index [2]: 2.61 ± 0.22

RYRGRGSEEYRAPRPQSEESWDEE [CHGB]
protein stability index [1]: 5.28 ± 0.51
protein stability index [2]: 5.34 ± 0.33
